Patent US20240270840A1 (NECTIN THERAPEUTICS, published 2024)
Changes are numbered by the printed parent chain. Names may count otherwise. Blank lines part the entries; values can stand above or below the binder they belong to.

Legend:
Human CD112R (PVRIG) [1] = target: T1, Human CD112R (PVRIG) (human, UniProt Q6DKI7 41-171, limits assumed); assay: affinity of glycosylation-motif variants (Table 2; method not named there)
T1 sequence (looked up): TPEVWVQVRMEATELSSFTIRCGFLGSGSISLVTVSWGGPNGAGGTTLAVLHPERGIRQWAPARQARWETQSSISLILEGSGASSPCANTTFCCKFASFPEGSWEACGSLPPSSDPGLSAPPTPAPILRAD

Human CD112R (PVRIG) [2] = target: T1, Human CD112R (PVRIG); assay: binding kinetics to human CD112R (Table 4; scFv variants by paragraph 288)
Human CD112R (PVRIG) [3] = target: T1, Human CD112R (PVRIG); assay: SPR (Biacore); purified full antibody
Human CD112R (PVRIG) [4] = target: T1, Human CD112R (PVRIG); assay: SPR (Biacore); purified full antibody; * limit of the Biacore instrument sensitivity

B1: VH0 N28A Vk0 (antibody, human IgG1, V domains shown)
VH: QVQLQQPGAELVKPGTSVKLSCKASGYAFTSYWINWVKLRPGQGLEWIGDIYPGSYIPNYNEKFKNKATLTVDTSSSTAYMQLTSLASEDSALYYCAGGYFDVWGAGTTVTVSS
VL: DIVMTQSPSSLSVSAGEKVTMSCKSSQSLLSSGNQKNYLAWYQQKPGQPPKLLIYGASTRESGVPDRFTGSGSGTDFTLTISSVQAEDLAVYYCQNDHSYPYTFGGGTKLEIK
notes: Variant of VH0K0
- Kd (Human CD112R (PVRIG) [1]): 150 pM
- Relative Kd (against VH0Vk0) (Human CD112R (PVRIG) [1]): 0.9

B2: VH11K2 as tested in Table 4 (humanized scFv variant) (scFv, V domains shown)
VH: QVQLVQSGAEVKKPGSSVKVSCKASGYTFTSYWINWVRQAPGQGLEWIGDIYPGSYIPNYNEKFKNRATLTVDTSASTAYMELSSLRSEDTAVYYCAGGYFDVWGQGTTVTVSS
VL: B1 VL with S9D, S12A, A15L, K18R, V19A, M21I, S22N, V84L, L89V, G106Q
notes: Format as for m33
- Kd (Human CD112R (PVRIG) [2]): 191 pM
- Relative Kd (against VH0K0) (Human CD112R (PVRIG) [2]): 0.62
- koff (Human CD112R (PVRIG) [2]): 0.000105 s⁻¹
- kon (Human CD112R (PVRIG) [2]): 552000 M⁻¹ s⁻¹

B3: VH0K0 as tested in Table 4 (scFv of VH0K0) (scFv, V domains shown)
VH: B1 VH with A28N
VL: B1 VL
- Kd (Human CD112R (PVRIG) [2]): 307 pM
- Relative Kd (against VH0K0) (Human CD112R (PVRIG) [2]): 1
- koff (Human CD112R (PVRIG) [2]): 8.89e-05 s⁻¹
- kon (Human CD112R (PVRIG) [2]): 290000 M⁻¹ s⁻¹

B4: VH0 N28S Vk0 (antibody, human IgG1, V domains shown)
VH: B1 VH with A28S
VL: B1 VL
notes: Variant of VH0K0
- Kd (Human CD112R (PVRIG) [1]): 116 pM
- Relative Kd (against VH0Vk0) (Human CD112R (PVRIG) [1]): 0.66

B7: VH0 N28T Vk0 (antibody, V domains shown)
VH: B1 VH with A28T
VL: B1 VL
notes: Variant of VH0K0; also called VH0K0 N28T
- Kd (Human CD112R (PVRIG) [1]): 102 pM
- Relative Kd (against VH0Vk0) (Human CD112R (PVRIG) [1]): 0.61
- Kd (Human CD112R (PVRIG) [3]): 126 pM
- Relative Kd (against VH0K0 N28T) (Human CD112R (PVRIG) [3]): 1
- koff (Human CD112R (PVRIG) [3]): 5.02e-05 s⁻¹
- kon (Human CD112R (PVRIG) [3]): 400000 M⁻¹ s⁻¹

B8: VH0 N28D Vk0 (antibody, human IgG1, V domains shown)
VH: B1 VH with A28D
VL: B1 VL
notes: Variant of VH0K0 without the N-linked glycosylation motif of heavy chain CDR1
- Kd (Human CD112R (PVRIG) [1]): 122 pM
- Relative Kd (against VH0Vk0) (Human CD112R (PVRIG) [1]): 0.73

B10: VH0K2 N28T (antibody, V domains shown)
VH: B1 VH with A28T
VL: B1 VL with S9D, S12A, A15L, K18R, V19A, M21I, S22N, V84L, L89V, G106Q
- Kd (Human CD112R (PVRIG) [3]): 109 pM
- Relative Kd (against VH0K0 N28T) (Human CD112R (PVRIG) [3]): 0.87
- koff (Human CD112R (PVRIG) [3]): 4.34e-05 s⁻¹
- kon (Human CD112R (PVRIG) [3]): 398000 M⁻¹ s⁻¹

B12: VH0 T30A Vk0 (antibody, human IgG1, V domains shown)
VH: B1 VH with A28N, T30A
VL: B1 VL
notes: Variant of VH0K0
- Kd (Human CD112R (PVRIG) [1]): 106 pM
- Relative Kd (against VH0Vk0) (Human CD112R (PVRIG) [1]): 0.63

B19: VH0 N28Q Vk0 (antibody, human IgG1, V domains shown)
VH: B1 VH with A28Q
VL: B1 VL
notes: Variant of VH0K0
- Kd (Human CD112R (PVRIG) [1]): 116 pM
- Relative Kd (against VH0Vk0) (Human CD112R (PVRIG) [1]): 0.69

B22: VH0K1 N28T (antibody, V domains shown)
VH: B1 VH with A28T
VL: B1 VL with S9D, A15L, K18R, V19A, M21I, S22N, V84L, L89V, G106Q
- Kd (Human CD112R (PVRIG) [4]): 25.9 pM
- Relative Kd (against VH0K0 N28T) (Human CD112R (PVRIG) [4]): 0.21
- koff (Human CD112R (PVRIG) [4]): 8.3e-06 s⁻¹
- kon (Human CD112R (PVRIG) [4]): 320000 M⁻¹ s⁻¹

More lines, now with the values ahead:

- Kd (Human CD112R (PVRIG) [3]): 135 pM
- Relative Kd (against VH0K0 N28T) (Human CD112R (PVRIG) [3]): 1.07
- koff (Human CD112R (PVRIG) [3]): 4.66e-05 s⁻¹
- kon (Human CD112R (PVRIG) [3]): 345000 M⁻¹ s⁻¹
B5: VH10K0 (antibody, V domains shown)
VH: B2 VH with R87A, V93L
VL: B1 VL

- Kd (Human CD112R (PVRIG) [4]): 10.3 pM
- Relative Kd (against VH0K0 N28T) (Human CD112R (PVRIG) [4]): 0.08
- koff (Human CD112R (PVRIG) [4]): 3.09e-06 s⁻¹
- kon (Human CD112R (PVRIG) [4]): 300000 M⁻¹ s⁻¹
B6: VH9K0 (antibody, V domains shown)
VH: B2 VH with R38K, Q39L
VL: B1 VL

- Kd (Human CD112R (PVRIG) [3]): 101 pM
- Relative Kd (against VH0K0 N28T) (Human CD112R (PVRIG) [3]): 0.8
- koff (Human CD112R (PVRIG) [3]): 3.19e-05 s⁻¹
- kon (Human CD112R (PVRIG) [3]): 316000 M⁻¹ s⁻¹
B9: VH11K0 (antibody, V domains shown)
VH: B2 VH
VL: B1 VL

- Kd (Human CD112R (PVRIG) [2]): 190 pM
- Relative Kd (against VH0K0) (Human CD112R (PVRIG) [2]): 0.62
- koff (Human CD112R (PVRIG) [2]): 0.000101 s⁻¹
- kon (Human CD112R (PVRIG) [2]): 530000 M⁻¹ s⁻¹
B11: VH11K3 as tested in Table 4 (humanized scFv variant) (scFv, V domains shown)
VH: B2 VH
VL: DIVMTQSPDSLAVSLGERATINCKSSQSLLSSGNQKNYLAWYQQKPGQPPKLLIYGASTRESGVPDRFSGSGSGTDFTLTISSLQAEDVAVYYCQNDHSYPYTFGQGTKLEIK
notes: Format as for m33

- Kd (Human CD112R (PVRIG) [3]): 111 pM
- Relative Kd (against VH0K0 N28T) (Human CD112R (PVRIG) [3]): 0.87
- koff (Human CD112R (PVRIG) [3]): 3.87e-05 s⁻¹
- kon (Human CD112R (PVRIG) [3]): 350000 M⁻¹ s⁻¹
B13: VH9K1 (antibody, V domains shown)
VH: B2 VH with R38K, Q39L
VL: B11 VL with A12S, S69T

- Kd (Human CD112R (PVRIG) [2]): 165 pM
- Relative Kd (against VH0K0) (Human CD112R (PVRIG) [2]): 0.54
- koff (Human CD112R (PVRIG) [2]): 0.000101 s⁻¹
- kon (Human CD112R (PVRIG) [2]): 630000 M⁻¹ s⁻¹
B14: VH11K1 as tested in Table 4 (humanized scFv variant) (scFv, V domains shown)
VH: B2 VH
VL: B11 VL with A12S, S69T
notes: Format as for m33

- Kd (Human CD112R (PVRIG) [3]): ~154 pM
- Relative Kd (against VH0K0 N28T) (Human CD112R (PVRIG) [3]): 1.22
- koff (Human CD112R (PVRIG) [3]): 1.06e-05 s⁻¹
- kon (Human CD112R (PVRIG) [3]): 330000 M⁻¹ s⁻¹
B15: VH9K3 (antibody, V domains shown)
VH: B2 VH with R38K, Q39L
VL: B11 VL

- Kd (Human CD112R (PVRIG) [3]): 119 pM
- Relative Kd (against VH0K0 N28T) (Human CD112R (PVRIG) [3]): 0.94
- koff (Human CD112R (PVRIG) [3]): 4.18e-05 s⁻¹
- kon (Human CD112R (PVRIG) [3]): 351000 M⁻¹ s⁻¹
B16: VH10K1 (antibody, V domains shown)
VH: B2 VH with R87A, V93L
VL: B11 VL with A12S, S69T

- Kd (Human CD112R (PVRIG) [4]): 32.1 pM
- Relative Kd (against VH0K0 N28T) (Human CD112R (PVRIG) [4]): 0.25
- koff (Human CD112R (PVRIG) [4]): 1.06e-05 s⁻¹
- kon (Human CD112R (PVRIG) [4]): 330000 M⁻¹ s⁻¹
B17: VH0K3 N28T (antibody, V domains shown)
VH: B1 VH with A28T
VL: B11 VL

- Kd (Human CD112R (PVRIG) [2]): 197 pM
- Relative Kd (against VH0K0) (Human CD112R (PVRIG) [2]): 0.64
- koff (Human CD112R (PVRIG) [2]): 0.000107 s⁻¹
- kon (Human CD112R (PVRIG) [2]): 545000 M⁻¹ s⁻¹
B18: VH10K3 as tested in Table 4 (humanized scFv variant) (scFv, V domains shown)
VH: B2 VH with R87A, V93L
VL: B11 VL
notes: Format as for m33

- Kd (Human CD112R (PVRIG) [4]): 43.2 pM
- Relative Kd (against VH0K0 N28T) (Human CD112R (PVRIG) [4]): 0.34
- koff (Human CD112R (PVRIG) [4]): 1.3e-05 s⁻¹
- kon (Human CD112R (PVRIG) [4]): 301000 M⁻¹ s⁻¹
B20: VH9K2 (antibody, V domains shown)
VH: B2 VH with R38K, Q39L
VL: B11 VL with S69T

- Kd (Human CD112R (PVRIG) [2]): 214 pM
- Relative Kd (against VH0K0) (Human CD112R (PVRIG) [2]): 0.7
- koff (Human CD112R (PVRIG) [2]): 0.000133 s⁻¹
- kon (Human CD112R (PVRIG) [2]): 623000 M⁻¹ s⁻¹
B21: VH10K2 as tested in Table 4 (humanized scFv variant) (scFv, V domains shown)
VH: B2 VH with R87A, V93L
VL: B11 VL with S69T
